Results on 2 molecules are retold here after paper PMC8795592, “Human Dermcidin Protects Mice Against Hepatic Ischemia-Reperfusion–Induced Local and Remote Inflammatory Injury” (Frontiers in Immunology, 2021).

Substitutions are numbered along the chain they refer to. Names may count otherwise.

Series [1] deals with the molecule itself. Briefly: SDS-PAGE with and without DTT; purified recombinant His-tagged protein run on SDS-PAGE in the presence or absence of the reducing agent dithiothreitol; shows disulfide-linked (covalent) dimers only.
Series [2] addresses T1, recombinant EGFR corresponding to the extracellular domain (residue 25-645) (human, UniProt P00533 25-645).
T1 construct: epidermal growth factor receptor (EGFR), human, extracellular domain, residues 25-645; also called extracellular domain of human EGFR; epidermal growth factor receptor; source: bought: RayBiotech
Briefly: SPR; Nicoya Lifesciences OpenSPR (gold nanoparticles); DCD or DCD-C34S with 6×His tag immobilised on NTA sensor chip; EGFR extracellular domain applied as analyte at three concentrations; KD by Trace Drawer Kinetic Data Analysis v.1.6.1. To be noted: both partners purified.

The target in series [3] is T1, recombinant EGFR corresponding to the …. Briefly: SPR; Biacore T200; DCD immobilised on CM5 chip; EGFR extracellular domain applied as analyte at 5 concentrations; KD by Biacore evaluation software 2.0 supposing a 1:1 binding ratio. To be noted: both partners purified. In general terms: In SPR one partner is held on a chip, and binding of the other changes the refractive index at the surface.

What is called stoichiometry N is the number of molecules, sites or subunits per partner or assembly. A word on the Kd: it is the constant that tells how readily two partners part at equilibrium.

B1: recombinant human dermcidin (full-length DCD precursor, residue 20-110) with N-terminal 6×His tag (natural protein, UniProt P81605 20-110, looked up)
chain: YDPEAASAPGSGNPCHEASAAQKENAGEDPGLARQAPKPRKQRSSLLEKGLDGAKKAVGGLGKLGKDAVEDLESVGKGAVHDVKDVLDSVL
notes: dermcidin (DCD), human, residues 20-110, without the N-terminal 19-aa signal leader peptide (residue 1-19); one sentence of the methods says residue 20-100; Without a reducing agent the preparation is a mixture of monomers and disulfide-linked dimers (through Cys34); results and legends print 20-110; also called recombinant DCD; source: E. coli BL21 (DE3) pLysS, purified; Triton X-114 extraction …
On to B1, for which, in series [1], the “stoichiometry N” value was 2. Moreover, the Kd in series [2] worked out at 58.1 nM; in series [3], 58.8 nM.

B2: DCD-C34S analog (recombinant human dermcidin residue 20-110 with a Cys to Ser substitution at residue 34, N-terminal 6×His tag) (natural protein, UniProt P81605 20-110, looked up)
chain: B1 chain with C15S
notes: dermcidin (DCD), human, residues 20-110 without the signal leader peptide, with C34S; Made by similar procedures as m1; source: E. coli BL21 (DE3) pLysS, purified to homogeneity; Triton X-114 extraction to remove endotoxins; not shown: His6, N-terminal, kept
As for B2, the Kd in series [2] came to 57.9 nM.
